Measured values from US20160185850A1 (ESBATECH AN ALCON BIOMEDICAL RESEARCH UNIT, published 2016).

Each binder was assayed against T1, recombinant human TNFα (human, UniProt P01375 77-233) (assay: ELISA on recombinant human TNFα (FIG. 4A)).
T1 construct: also called hTNFα; tumour necrosis factor alpha
T1 sequence (P01375 77-233 limits assumed): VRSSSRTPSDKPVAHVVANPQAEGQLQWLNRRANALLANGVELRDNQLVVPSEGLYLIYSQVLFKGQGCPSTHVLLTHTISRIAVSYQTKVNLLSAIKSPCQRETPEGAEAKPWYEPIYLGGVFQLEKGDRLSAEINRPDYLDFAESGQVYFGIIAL

| Binder | Kd [nM] |
| --- | --- |
| TB-B L46 (scFv, Differs from TB-B only at position 46 of VL (R to L); also called TB-B R46L) scFv: DIVLTQSPSSLSASVGDRVTLTCTASQSVSNDVVWYQQRPGKAPKLLIYSAFNRYTGVPSRFSGSGSGTEFTLTISSLQPEDVAVYYCQQDYNSPRTFGQGTKLEVKRGGGGSGGGGSGGGGSGGGGSQVQLVQSGAEVKKPGASVKVSCTASGYSFTHYGMNWVRQAPGQGLEWMGWINTYTGEPTYADKFKDRVTLTRDTSIGTVYMELTSLTSDDTAVYYCARERGDAMDYWGQGTLVTVSS | ~100 |

These binders were tested against T1, recombinant human TNFα (assay: cell-based or functional assay).

| Binder | Relative potency: EC50X/EC50TB-A, KYM-1 cells [ratio EC50X/EC50TB-A] | Relative potency: EC50X/EC50TB-A, L929 cells [ratio EC50X/EC50TB-A] |
| --- | --- | --- |
| TB-A H_F68L (scFv) scFv: DIVMTQSPSSLSASVGDRVTLTCTASQSVSNDVVWYQQRPGKAPKLLIYSAFNRYTGVPSRFSGRGYGTDFTLTISSLQPEDVAVYYCQQDYNSPRTFGQGTKLEVKRGGGGSGGGGSGGGGSGGGGSQVQLVQSGAEVKKPGASVKVSCTASGYTFTHYGMNWVRQAPGKGLEWMGWINTYTGEPTYADKFKDRLTFSLETSASTVYMELTSLTSDDTAVYYCARERGDAMDYWGQGTLVTVSS | 1.5 | 1.32 |
| TB-A Linker_G2R H_F68L (scFv) scFv: DIVMTQSPSSLSASVGDRVTLTCTASQSVSNDVVWYQQRPGKAPKLLIYSAFNRYTGVPSRFSGRGYGTDFTLTISSLQPEDVAVYYCQQDYNSPRTFGQGTKLEVKRGRGGSGGGGSGGGGSGGGGSQVQLVQSGAEVKKPGASVKVSCTASGYTFTHYGMNWVRQAPGKGLEWMGWINTYTGEPTYADKFKDRLTFSLETSASTVYMELTSLTSDDTAVYYCARERGDAMDYWGQGTLVTVSS | 1.3 | 0.8 |
| TB-A H_K43R/F68I (scFv) scFv: DIVMTQSPSSLSASVGDRVTLTCTASQSVSNDVVWYQQRPGKAPKLLIYSAFNRYTGVPSRFSGRGYGTDFTLTISSLQPEDVAVYYCQQDYNSPRTFGQGTKLEVKRGGGGSGGGGSGGGGSGGGGSQVQLVQSGAEVKKPGASVKVSCTASGYTFTHYGMNWVRQAPGRGLEWMGWINTYTGEPTYADKFKDRITFSLETSASTVYMELTSLTSDDTAVYYCARERGDAMDYWGQGTLVTVSS | 1.5 | 1.37 |
| TB-A H_F68V/F70L (scFv) scFv: DIVMTQSPSSLSASVGDRVTLTCTASQSVSNDVVWYQQRPGKAPKLLIYSAFNRYTGVPSRFSGRGYGTDFTLTISSLQPEDVAVYYCQQDYNSPRTFGQGTKLEVKRGGGGSGGGGSGGGGSGGGGSQVQLVQSGAEVKKPGASVKVSCTASGYTFTHYGMNWVRQAPGKGLEWMGWINTYTGEPTYADKFKDRVTLSLETSASTVYMELTSLTSDDTAVYYCARERGDAMDYWGQGTLVTVSS |  | 1.28 |
| TB-A H_F70L (scFv) scFv: DIVMTQSPSSLSASVGDRVTLTCTASQSVSNDVVWYQQRPGKAPKLLIYSAFNRYTGVPSRFSGRGYGTDFTLTISSLQPEDVAVYYCQQDYNSPRTFGQGTKLEVKRGGGGSGGGGSGGGGSGGGGSQVQLVQSGAEVKKPGASVKVSCTASGYTFTHYGMNWVRQAPGKGLEWMGWINTYTGEPTYADKFKDRFTLSLETSASTVYMELTSLTSDDTAVYYCARERGDAMDYWGQGTLVTVSS |  | 2.7 |
| TB-A H_M48L/F68I (scFv) scFv: DIVMTQSPSSLSASVGDRVTLTCTASQSVSNDVVWYQQRPGKAPKLLIYSAFNRYTGVPSRFSGRGYGTDFTLTISSLQPEDVAVYYCQQDYNSPRTFGQGTKLEVKRGGGGSGGGGSGGGGSGGGGSQVQLVQSGAEVKKPGASVKVSCTASGYTFTHYGMNWVRQAPGKGLEWLGWINTYTGEPTYADKFKDRITFSLETSASTVYMELTSLTSDDTAVYYCARERGDAMDYWGQGTLVTVSS | 1.6 | 1.1 |
| TB-A H_F68A (scFv) scFv: DIVMTQSPSSLSASVGDRVTLTCTASQSVSNDVVWYQQRPGKAPKLLIYSAFNRYTGVPSRFSGRGYGTDFTLTISSLQPEDVAVYYCQQDYNSPRTFGQGTKLEVKRGGGGSGGGGSGGGGSGGGGSQVQLVQSGAEVKKPGASVKVSCTASGYTFTHYGMNWVRQAPGKGLEWMGWINTYTGEPTYADKFKDRATFSLETSASTVYMELTSLTSDDTAVYYCARERGDAMDYWGQGTLVTVSS |  | 1.14 |

What follows are binders tested against T1, recombinant human TNFα (assay: ELISA on recombinant human TNFα).

| Binder | binding result |
| --- | --- |
| TB-A H_F70L/L72R (scFv, also called TB-A H70/72) scFv: DIVMTQSPSSLSASVGDRVTLTCTASQSVSNDVVWYQQRPGKAPKLLIYSAFNRYTGVPSRFSGRGYGTDFTLTISSLQPEDVAVYYCQQDYNSPRTFGQGTKLEVKRGGGGSGGGGSGGGGSGGGGSQVQLVQSGAEVKKPGASVKVSCTASGYTFTHYGMNWVRQAPGKGLEWMGWINTYTGEPTYADKFKDRFTLSRETSASTVYMELTSLTSDDTAVYYCARERGDAMDYWGQGTLVTVSS | binds |
